From patent US20100291074A1 (COLUMBIA UNIVERSITY IN THE CITY OF NEW YORK, published 2010)

Key:
monomeric Aβ40 = biological target: T1, monomeric Aβ40 (UniProt P05067 672-711); assay: SPR (BIAcore 3000), Aβ immobilized on a CM5 chip, CypD in the mobile phase, 25° C.; monomeric Aβ40
T1 construct: domain: Aβ(1-40); Immobilized on a CM5 chip by amine coupling for SPR; also called Aβ(1-40); amyloid beta
Description: (§1) Aβ(1-40) and Aβ(1-42), including monomeric and oligomeric Aβ, were used in the binding assay. The kinetic parameters evaluating binding affinity were analyzed as described in the Examples. […] The evaluating curves (red line) were overlaid with experimental data.
(§2) The monomeric and oligomeric Aβ were prepared as described and characterized by atomic force microscopy. SPR studies were performed on a BIAcore 3000 system (BIAcore AB, Uppsala, Sweden). Aβ (500 μg/ml) was immobilized using the standard amino coupling on a research-grade CM5 sensor chip. […] The binding curves were analyzed with the global fitting model using BIA evaluation version 4.0.1 (BIAcore AB).

monomeric Aβ42 = biological target: T2, monomeric Aβ42 (UniProt P05067 672-713); assay: SPR (BIAcore 3000), Aβ immobilized on a CM5 chip, CypD in the mobile phase, 25° C.; monomeric Aβ42
T2 construct: domain: Aβ(1-42); Immobilized on a CM5 chip by amine coupling for SPR; also called Aβ(1-42); amyloid beta
T2 sequence (P05067 672-713 limits assumed): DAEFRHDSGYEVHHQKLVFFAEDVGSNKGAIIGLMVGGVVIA
Description: as §1, §2

oligomeric Aβ40 = biological target: T3, oligomeric Aβ40 (UniProt P05067 672-711); assay: SPR (BIAcore 3000), Aβ immobilized on a CM5 chip, CypD in the mobile phase, 25° C.; oligomeric Aβ40
T3 construct: domain: Aβ(1-40); Oligomer; Immobilized on a CM5 chip for SPR; also called Aβ(1-40); amyloid beta
T3 sequence (P05067 672-711 limits assumed): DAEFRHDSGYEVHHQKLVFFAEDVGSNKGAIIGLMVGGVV
Description: as §1, §2

oligomeric Aβ42 = biological target: T4, oligomeric Aβ42 (UniProt P05067 672-713); assay: SPR (BIAcore 3000), Aβ immobilized on a CM5 chip, CypD in the mobile phase, 25° C.; oligomeric Aβ42
T4 construct: domain: Aβ(1-42); Oligomer; Immobilized on a CM5 chip for SPR; also called Aβ(1-42); amyloid beta
T4 sequence (P05067 672-713 limits assumed): as the sequence (P05067 672-713 limits assumed) above
Description: as §1, §2

T1 sequence (P05067 672-711 limits assumed): as the sequence (P05067 672-711 limits assumed) above

Kd (monomeric Aβ40): 1700 nM
Kd (monomeric Aβ42): 164 nM
Kd (oligomeric Aβ40): 227 nM
Kd (oligomeric Aβ42): 4 nM
B1: purified recombinant human CypD protein (Cyclophilin D) (enzyme)
chain: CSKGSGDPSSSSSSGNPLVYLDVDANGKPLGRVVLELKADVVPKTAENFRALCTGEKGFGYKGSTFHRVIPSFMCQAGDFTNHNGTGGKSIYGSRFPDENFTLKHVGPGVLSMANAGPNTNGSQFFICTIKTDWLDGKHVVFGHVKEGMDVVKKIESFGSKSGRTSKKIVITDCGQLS
notes: also called human mitochondrial CypD protein; PPIF
